Drawing on article PMC2248716, this text covers FRET efficiency and FRET ratio for one substance.

Holding throughout (assay): FRET or BRET
(In general: In BRET a luciferase serves as donor, and the signal depends on an acceptor being close.)

Assay [1] deals with NaV1.4-EYFP (UniProt P15390).
Assay [2] has as its target NaV1.4-EYFP (UniProt P15390). This is another data set of the same source.
For assay [3], the target named is NaV1.4-EYFP (UniProt P15390). The source holds these as a separate data set.
Another assay has as its target NaV1.4_(IQ/AA)-EYFP (UniProt P15390).
The target of assay [4] is NaV1.4-EYFP (UniProt P15390). The source holds these as a separate data set.
For assay [5], the target named is NaV1.4-EYFP (UniProt P15390). This is another data set of the same source.

Read-outs that look alike come from different tables or passages of the source.

For “ECFP-CaM (from UniProt P0DP23 1-149) (natural protein)”, the FRET efficiency stood at 22.7% in the assay with NaV1.4-EYFP [1]; 9.9% with NaV1.4-EYFP [2]; 8.2% with NaV1.4-EYFP [3]; 25.4% with NaV1.4-EYFP [4]; 10.3% in the assay with NaV1.4-EYFP [5]. Besides, the values for the FRET ratio with NaV1.4-EYFP [3], with NaV1.4_(IQ/AA)-EYFP and in the assay with NaV1.4-EYFP [5] were over 1, under 1 and 2, respectively.
